From US6558918 come the findings set out here.

One data set addresses Cdc2-AF/CyclinB1 complex (UniProt P06493).
For data set [1], the target named is Cdc2-F15/CyclinB1 complex (UniProt P06493).
In data set [2] the target is wild-type Cdc2/cyclin B1 complex (UniProt P06493).
In data set [3] the target is kinase-deficient Cdc2 mutant (K-) complexed with cyclin B1 (UniProt P06493).
Sequence of kinase-deficient Cdc2 mutant (K-) complexed with cyclin B1 (P06493 whole entry, looked up, change not shown, one chain of several): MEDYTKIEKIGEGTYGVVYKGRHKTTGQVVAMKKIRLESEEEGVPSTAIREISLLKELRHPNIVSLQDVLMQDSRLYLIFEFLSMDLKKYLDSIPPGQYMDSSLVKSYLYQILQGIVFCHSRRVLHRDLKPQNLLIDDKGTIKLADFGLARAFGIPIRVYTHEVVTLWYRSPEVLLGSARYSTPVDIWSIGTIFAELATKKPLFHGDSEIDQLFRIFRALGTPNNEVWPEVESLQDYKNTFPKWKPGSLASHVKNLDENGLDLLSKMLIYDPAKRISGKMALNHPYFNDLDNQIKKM

Sequence of full-length human Wee1 with N-terminal Glu-Glu tag, expressed in Sf9 cells (chain, as listed by the source): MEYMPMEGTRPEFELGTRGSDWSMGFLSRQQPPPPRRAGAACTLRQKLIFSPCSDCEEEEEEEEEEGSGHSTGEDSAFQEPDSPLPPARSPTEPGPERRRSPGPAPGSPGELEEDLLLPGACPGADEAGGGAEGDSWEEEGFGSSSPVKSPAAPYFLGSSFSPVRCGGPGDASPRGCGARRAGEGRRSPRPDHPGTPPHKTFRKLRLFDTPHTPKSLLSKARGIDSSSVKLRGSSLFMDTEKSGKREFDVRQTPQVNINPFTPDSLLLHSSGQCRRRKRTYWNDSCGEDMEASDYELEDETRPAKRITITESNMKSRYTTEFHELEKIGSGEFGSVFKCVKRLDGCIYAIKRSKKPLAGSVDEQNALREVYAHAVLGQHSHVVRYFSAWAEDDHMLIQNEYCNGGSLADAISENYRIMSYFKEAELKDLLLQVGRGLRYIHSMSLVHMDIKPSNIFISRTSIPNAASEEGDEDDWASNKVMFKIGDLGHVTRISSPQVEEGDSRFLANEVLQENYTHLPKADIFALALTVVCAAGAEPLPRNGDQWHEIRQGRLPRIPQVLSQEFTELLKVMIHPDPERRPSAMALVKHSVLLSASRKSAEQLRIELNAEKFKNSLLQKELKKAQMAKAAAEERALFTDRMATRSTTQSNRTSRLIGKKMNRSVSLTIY
Sequence of Cdc2-AF/CyclinB1 complex (P06493 whole entry, looked up, one chain of several): as the sequence (P06493 whole entry, looked up, change not shown, one chain of several) above
Sequence of wild-type Cdc2/cyclin B1 complex (P06493 whole entry, looked up, one chain of several): as the sequence (P06493 whole entry, looked up, change not shown, one chain of several) above
Sequence of Cdc2-F15/CyclinB1 complex (P06493 whole entry, looked up, one chain of several): as the sequence (P06493 whole entry, looked up, change not shown, one chain of several) above

“full-length human Wee1 with N-terminal Glu-Glu tag, expressed in Sf9 cells”: the “histone H1 kinase activity in mixed Sf9 lysates” value was “Cdc2-F15/CyclinB1 and Cdc2-AF/CylinB1 complexes retained full activity in the presence of Wee1 lysates” with Cdc2-AF/CyclinB1 complex; “Cdc2-F15/CyclinB1 and Cdc2-AF/CylinB1 complexes retained full activity in the presence of Wee1 lysates” in data set [1]. The “histone H1 kinase activity of Cdc2/CyclinB1 in mixed Sf9 lysates” value in data set [2] is on record as “the addition of Wee1 lysates effectively inhibited Cdc2/CyclinB1 kinase activation”. In addition, the “phosphoamino acid analysis of 32P-labeled Cdc2” value in data set [3] is given as “the Tyrosine 15 residue was readily phosphorylated by full-length Wee1”.
